This data set is described as follows: label from the status in PepcDB records.
As for “MRDEAGSRGIVMQNASANALVPREAARAAPMADIQKIAQHMARLNVAALPRNYELFHEAIIGLNAGLAQDIAALGSQPQQPMLDELGLKYRLAGHCGLAGETSRNEASRMLRDVAERLAEGLRHKNAFARACGTILKSVSGQNDQSLAAFLSEIDYLTASLSTVLAAEMEIGAKLQDDIKTLETLERGISAMQSAAIADRITGLPNRIALNRTIADLYERQEGAAGSALIMVDIDNFTDLNDKYGTQAGNKLLKKLAGLLQKSIKKNDFVARTEGDEFALLFSNVGMQDAIAIAERLRASVEDNLVFATSDKTDRGRLTISIGVALSTDAATPGQLQANARVALLAAQSNPRLPVQAFGR”, the protein production result is “failed”.
In the case of “MRDILFIYLLTLGIKLYAYFLSGFTAILADAFHSVIDITMILILLLSERYAEKEADYQHPFGHEMARNVASLAVGVGFITFMFFELMKEGLLKVLHPASGYSNVEVALGAEVAVLALLVIAALISARRSGILNRTLLVESLNDSLSTLAAIVGVGLVWAGYPIFDGIATIAIAFIIFYNSFRLVRDNARLLIGMSPSEDFYRSVEDACLEIERVKGVHDMVGVYTGENSVHLDLHVTVDGAMTIEEADKLSVEIAEAIMAKHPEVKHISVHFCPHDGRRRKLY” it was “failed”; in that of “MRDRGDKPAEAGLGLTQTRQEDPAAMIDLYYAPTPNGWKISIMLEECGLPYKVVPMQLGRGDQHQPGFLKLSPNGRMPAIVDHAPIGGGAPLSVFESGAILIYLAEKSGQLMPTETRARFEVMQWLMWQMAGLGPMLGQNGHFLLYAPEKIPYAIDRYSREAKRLYGVLDQRLADRACIAGDYSIADIACFPWIMTHKAQGLTLDDYPNIKRWYAALRARPKLQAGLALGKEDKKPMDEQARKLLFGVDKPAHADAQAQSAQQQ”, “not failed”.
In the case of “MRDRRAPSPCGWRSGRNDLRPARLDLAISAAMRTNSAPQPEGDADQPPSPSTPPAGPPPRRRFGFARRLLAPVLSPVAHYARRYLQASVEHELRQTQGQLHALSAELNAAQARIDHNRELMHLMLQQQQASAVAMQSVLAQLARIEGHSARAEDHGIRIEGLSRKLDGDIAGLPGVFGPRFDELEIKQRPLIAYDDESMAIRMRDGYVLAPRNLPTFVTMLANATSRGLEPGTGDVLRRLVQPGMVVADVGANIGLLTLVMAWATGPGGRVIAFEPEAIPRSNLEKMKHLNGLSWVEVRDQAVGERAGRLTFHVSDIIGHSSLYALPDAEEARTVEVEVVRLDDVAPAKRLDVVKIDVEGAELDVLAGMKGVIAKNPDLAIIAEFGPEHLARVGQTPVQWFKAFGDAGFKAYMINETSGDCEPTSAKAATTVVSANIAFVRAGGDAEMRLLGR” it was “failed”; in that of “MREEELNTEKVVAAIANPVENEVRKVWEDVVEKIEQRVAVIEQASHKLLQNKVSEEILSKAKVEAHKLAGSLGMFGSDEGSQIAQEIESLLDNGKKLKASGGKHLGQVVELEHHHHHH”, “failed”.
With “MREGRLGYNSYNKRYGLLSSDLWIDTGFHCGEYLEVLLDDEWVQTRMEMNPAREWYLVGTPYCGDLEYIRARIPE” the entry was “failed”; with “MREPVDLRRQRILAAVQARGTARVRDLADELQVSVVTVRRDVEELTREGRLSRGHGVVRSTLPARESAPEAVPAAGDRVAVVVPVRHSYLTETLHGARTVLERAGVRMALHLAPQASGAERPLVERALADGADGLLIAPRWRGRADEEADHEWLAGTGVPTVLMERRPWRGSALHALDSVCSDHWYGAHLAVEHLVGLGHRRIVVATRHDSPTARSLRAAFTEIAGAHPLVERWAWTLVAPEAGADGPYSADETAEPPALMRKVGATAMVLHGDVDALMVVQRLAEEGVRVPEDCSVVAYDDVVAGLAAPPLTAVSPPKAEVGHTAAELLLQRLTEAPGGRRPGRRVELLPRLMVRGSTDRSVEPLDE”, “failed”; with “MRFGSRIEDGTGAPGAGRLARFAAVGGSGVVVNLAVLHVLAQGLGVPEVAASAVAIEASVLSNFLLHDAITFRDRRGGRGRLARLGRYHAVSLVGVAIQLATFAALALLARHALGRPSLGPLRLPAQAAGIALAFAWSWAGSARWAWAGAGAAVRGPEAGARGRALLPAVLFGALVALHVLPIWLVRYFPTQDGPLHVENVLALLHHGASPLLRGYYEANWGAQPNWLTQALLAPLLSIVSPLTAEKLVLSGYTVLLPISFRAVLPRGARGWWAALAVFPFVHAYPFHMGFWNFCYGVALAFLAAGFWLRTRGRLGPGRFAALAVLSLLLYLAHSVAFAGALLFAGAVLGLRAARSLARARRHPARRRRVAAAYARRAAAGLAAAAPGLLLLGAWLLAHRDRVAARIPLPELAAKLAAGYSLVSIDRRELPLAMAVMLVLAVAVVHAALVRAGRGVRLLAHDGWLVAAAAFVLLYFAVPDVVAAGAHVSDRMALLALLCVAAWLGAASAGPGAPARRAAVALAAIAVVALGVRLDKQRQLSAYLEEYASASAAVEEGRVMLPLALSPYGPQDAHGRRMGYRIKPFLHATGWIVAARGGVDLKNSQANTDHCPVRFPAGRNPFHVIAGSLGRMEGVPPCVDLRGARRLGRLDYVLVWGATRELLETPCGAALAADLAARYEPVWLSAPRGMLEIWRPRAAVAVAR”, “failed”.
Consider “MRFKQNADHIVLTHVFNGGSAESAALCPQDKIIALDGYACTDFAAQWARYHVRAKINIHFFRAGILRQTVLTVQATALEHHHHHH”, for which the protein production entry is listed as “failed”.
With “MRFLAYFGHLNIDVLISVDSIPREGSVNVKDLRPRFGGTAGNFAIVAQKFRIPFDLYSAVGMKTHREYLAMIESMGINTGHVEKFEDESGPICYIATDGKKQVSFMHQGAMAAWAPQLADEYEYVHFSTGPNYLDMAKSIRSKIIFDPSQEIHKYSKDELKKFHEISYMSIFNDHEYRVFREMTGLSSPKVTTIVTNGERGSSLFMDGKKYDFPAIPSSGDTVGAGDSFRAGLYLALYNRRSIEKGMIYGTIIAHHVIDDGIENFSLNMEDLERETENYRRMFTKRS” the entry was “not failed”; with “MRFLSLVGNSFGCSASGERLVSAARDGDLQEAKALLDYNPRLARYSTFGVRNSPLHYSAAQGHHEIVSLLVESGVDINLRNYRGQTALMQACQHGHWEVVLILILFGANIHRSDYLNGGTALHLAALNGHPRCIRILLSEYIPSVPNCWSLLKNKKTSVAGFDSSVLHEVINRAADGGITPLHVAALNGHIETVQLLLDLGASVTQVTVEDGTTIDLIGAGSTALHYASCGGNTQCCQLLISKGACLAAVNSNGWTPMMVARSWHRNWLEEILNPTTEQPQLHLPNVPSPFLCLPLMSIVNIAQECGWRENDCLTPCRDPCAVCLERKCTVAADGCAHEFCTNCALYLSTTSITSSKTSNVTPGSVPCPLCRNGIVSFTKLPHTTATTRTSTSSRTSISLSFCTCSSDVLDTALLTNPHYSCKPVVSRTGSRTPQSARSSAFRSLSCRRFPPSLCLGGSDVDEPRSRLIGGSYSRSGVGFRRSTSQVEGKRSWFSALNHCVTTGGSAC”, “failed”.
With “MRFSFLPIVILMMPILEIAGFIIVGKAIGLWLTLALILFTSFLGLLILRLGGVGMVRNLQAAGRTGAQPADELVNGAMRVVAGILLIIPGFITDILGLLLLSPAIRRFFWKAFGPRVVVSGSFRQSGPQQGDYSGFRNGPGPAGNSKVVDLDEEEFHREGSKDSPWSNRPDDRDLPKP” the entry was “failed”; with “MRGCNKETGEFLGPSRSQQRRTALEVLVLSEKLAALTPAQLAKLPIPERLLPHITETKRITSHIARKRQLAFLAKQMRREDDTTLEAIREKLNASGIQAQREVATLHRTEQWRKRLLEEGDSALTELLNQYPQADCGKLRQLLRNSKTEQARNKAPQAFRELYQVLHGLIITQ”, “not failed”; with “MRGDKFTLRDSLCLKVDGGRGVCLKGDGGRGVCLKGDGGRGVCLKGDSCDFNHSYTLPRREEVEKHQIELFKEEILSYMRKWISPHEFLQKVLDFNLKSLLVDLAATFNVRYPERQRLLV”, “failed”.
With “MRGKHIFIITALISILMLAACGQKNSSATVATATDSTITKSDFEKQLKDRYGKDMLYEMIAQDVITKKYKVSDDDVDKEVQKAKSQYGDQFKNVLKNNGLKDEADFKNQIKFKLSMNKAIKQSVTEKDVKDHYKPEIKASHILVSDENEAKEIKKKLDTGASFEELAKQESQDLLSKEKGGDLGYFHSGAMTPEFETAAYKLKIGQISDPVQSPNGYHIIKLTGKKDLKPYDEVKNSIRKNLEEERTADPIFGKKLLQSELKKANIKINDSELEDTFTIVSPQGN” the entry was “failed”.
Consider “MRGKKRIGLLFLLIAVVVGGGGLLLAQKVLHKTSDTAFCLSCHSMSKPFEEYQGTVHFSNQKGIRAECADCHIPKSGMDYLFAKLKASKDIYHEFVSGKIDSDDKFEAHRQEMAETVWKELKATDSATCRSCHSFDAMDIASQSESAQKMHNKAQKDSETCIDCHKGIAHFPPEIKMDDNAAHELESQAATSVTNGAHIYPFKTSHIGELATVNPGTDLTVVDASGKQPIVLLQGYQMQGSENTLYLAAGQRLALATLSEEGIKALTVNGEWQADEYGNQWRQASLQGALTDPALADRKPLWQYAEKLDDTYCAGCHAPIAADHYTVNAWPSIAKGMGARTSMSENELDILTRYFQYNAKDITEKQ”, for which the protein production result is reported as “failed”.
With “MRGLAVLVLLVFAVQVAAAEDFRPVVFVHGLAGSAGQFESQGMRFAANGYPAEYVKTFEYDTISWALVVETDMLFSGLGSEFGLNISQIIDPETLDKILSKSRERLIDETFSRLDRVIDEALAESGADKVDLVGHSMGTFFLVRYVNSSPERAAKVAHLILLDGVWGVDAPEGIPTLAVFGNPKALPALGLPEEKVVYNATNVYFNNMTHVQLCTSPETFAVMFEFINGYKPATTDIVPQDGDYVKVKGKFLAFATNGDVSGWLSIYPIDENGKRLTRLPVKFMRVKGDFEVRLRKGQLYEFQFRKDFSPIIYHYYRAPFVRDDLWARFLVSKPPLDVELLILPERLSPAAKETSGLLLIRYKEMIGEYDEEIGGVDEVYVNGVNVCTERICPIERAVNGLWVFDRGADGKSDLDREVVRYSIMPFMSAADLVVPAEGTISIAVKSRTGGEESFTIPAWSADRHSIIVQFSDYI” the entry was “failed”.
With “MRGLKTFSILGLIVALLLVAACGNTDNSSKKESSTKDTISVKDENGTVKVPKDAKRIVVLEYSFADALAALDVKPVGIADDGKKKRIIKPVREKIGDYTSVGTRKQPNLEEISKLKPDLIIADSSRHKGINKELNKIAPTLSLKSFDGDYKQNINSFKTIAKALNKEKEGEKRLAEHDKLINKYKDEIKFDRNQKVLPAVVAKAGLLAHPNYSYVGQFLNELGFKNALSDDVTKGLSKYLKGPYLQLDTEHLADLNPERMIIMTDHAKKDSAEFKKLQEDATWKKLNAVKNNRVDIVDRDVWARSRGLISSEEMAKELVELSKKEQK”, the protein production result is “failed”.
In the case of “MRGLSRRVQAMKPSATVAVNAKALELRRQGVDLVALTAGEPDFDTPEHVKEAARRALAQGKTKYAPPAGIPELREALAEKFRRENGLSVTPEETIVTVGGKQALFNLFQAILDPGDEVIVLSPYWVSYPEMVRFAGGVVVEVETLPEEGFVPDPERVRRAITPRTKALVVNSPNNPTGAVYPKEVLEALARLAVEHDFYLVSDEIYEHLLYEGEHFSPGRVAPEHTLTVNGAAKAFAMTGWRIGYACGPKEVIKAMASVSSQSTTSPDTIAQWATLEALTNQEASRAFVEMAREAYRRRRDLLLEGLTALGLKAVRPSGAFYVLMDTSPIAPDEVRAAERLLEAGVAVVPGTDFAAFGHVRLSYATSEENLRKALERFARVLGRA” it was “not failed”.
With “MRGPAEQPPVTAISADATDADAAWRIMEQTRPDVVIMNAGAEPPMERIDRIGWEAFTTNWNVDVKAALHWVQAALTVPMAPGGLVVLISSGAAVQGSPLSGGYAGAKRAQWFIAKYADGLSAELGLGLRFRVLVPRQMFVGTGVGDTGIGAYAAKAGRTFAEQAATWPNMTPRAFGDTVAELIGKSGLAEAMVYAVRGDTGVTVIE” the entry was “failed”.
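Also: failed if final PepcDB status was selected cloned or expressed and not failed if soluble or beyond.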
